2 molecules from PMC10227085, “OsMADS17 simultaneously increases grain number and grain weight in rice” can be followed below.

The target in one series is MBP-OsMADS1 (Oryza sativa, UniProt Q10PZ9 1-257). Nature of the series: EMSA; cold probe competition at 20x and 200x; 20 uL with 2 uL biotin probe, 5 ug protein, 2 uL 10x binding buffer (composition not given), 1 uL 50% glycerol; 30 min at room temperature; 6% native PAGE, 0.5x TBE. The conditions noted are these: protein: recombinant; tags: N-terminal MBP; chain copies: 2; blunt. For orientation: A gel shift assay detects complexes by their altered migration in electrophoresis.

Another series deals with MBP-OsMADS17 (Oryza sativa, UniProt Q7XUN2 1-249). The series is described as above. The conditions noted are these: protein: recombinant; tags: N-terminal MBP; chain copies: 2; blunt.
MBP-OsMADS17, sequence (Q7XUN2 whole entry): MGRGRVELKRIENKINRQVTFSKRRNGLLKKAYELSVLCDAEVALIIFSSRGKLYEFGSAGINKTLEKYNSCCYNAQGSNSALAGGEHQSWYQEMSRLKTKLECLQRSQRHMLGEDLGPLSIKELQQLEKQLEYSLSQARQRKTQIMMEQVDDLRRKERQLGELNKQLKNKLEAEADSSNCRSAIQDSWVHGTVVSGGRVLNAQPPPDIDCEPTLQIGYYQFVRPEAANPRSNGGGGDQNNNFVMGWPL

MBP-OsMADS1, sequence (Q10PZ9 whole entry): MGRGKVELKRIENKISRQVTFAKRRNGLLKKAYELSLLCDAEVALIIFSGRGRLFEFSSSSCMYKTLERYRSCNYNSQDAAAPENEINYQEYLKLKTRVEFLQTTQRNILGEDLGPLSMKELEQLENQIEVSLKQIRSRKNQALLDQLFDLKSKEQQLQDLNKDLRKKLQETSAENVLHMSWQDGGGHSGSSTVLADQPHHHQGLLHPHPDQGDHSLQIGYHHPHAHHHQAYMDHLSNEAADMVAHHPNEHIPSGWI

B1: EMSA-probe-OsMADS17 (dsDNA)
DNA 1: TCTCTGCTCCTTTATATGGGGTTACA
DNA 2: TGTAACCCCATATAAAGGAGCAGAGA
For the molecule B1, the binding result with MBP-OsMADS1 is given as “binds”.

B2: EMSA-probe-OsAP2-39 (dsDNA)
DNA 1: AAACCTTACCAAATTTTGGTAAAGTTGCCAAAAAAATGGCTATATTTA
DNA 2: TAAATATAGCCATTTTTTTGGCAACTTTACCAAAATTTGGTAAGGTTT
Take B2: the binding result in the series with MBP-OsMADS17 was “binds”.
